# What was measured:
# Bak = target: T1, Bak (Homo sapiens, UniProt Q16611); assay: Bak-induced apoptosis in transfected cells; format: cell-based; design: expressed in transfected cells; conditions: CSM14.1 or PC-3 cells, transient co-transfection
# T1 sequence (Q16611 1-211): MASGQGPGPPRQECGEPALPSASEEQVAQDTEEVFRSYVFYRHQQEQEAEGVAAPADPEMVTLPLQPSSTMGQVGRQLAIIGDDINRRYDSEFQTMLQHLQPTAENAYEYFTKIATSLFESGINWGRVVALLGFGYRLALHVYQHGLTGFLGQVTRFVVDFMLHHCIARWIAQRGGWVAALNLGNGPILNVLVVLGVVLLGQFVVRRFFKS
# Experimental: (A-D) CMS14.1 neuronal cells were transfected with plasmids encoding Flag-HN peptide or Flag-control (27-amino-acid) peptide, together with GFP-encoding plasmid at 4:1 ratio. Cells were either cultured without further treatment (open bars) or subjected to various apoptotic stimuli for various times (dark bars), including (A) STS for 8 h (dark symbols=Flag-control; open symbols=Flag-HN), (B) Serum-deprivation for 72 h, (C) 10 joules/m2 Uvirradiation followed by 24 h culture, and (D) 50 ng/ml TNFa in […] for 24 h. Cells were then fixed and stained with DAPI to determine the percentage of apoptotic cells, evaluating=200 GFP-positive cells per sample (mean±SD; n=3). (inset) Lysates prepared from replicate cultures of transfected cells were normalized for total protein content and analyzed by immunoblotting using anti-Flag (top) and anti-tubulin (bottom) antibodies, confirming production of similar amounts of Flag-control and Flag-HN peptides. […] (Upper panel) After 72 hr, cell lysates were prepared and 100 ug was analyzed by immunoblotting using anti-HN and anti-tubulin (as a loading control) antibodies. (Lower panel) At 72 hr after siRNA transfection, SF268 cells were cultured with 0.1 μM STS for 8 hrs, then % apoptosis was determined (mean+std dev; n=3). […] Apoptosis (%) was measured 48 hrs later among GFP-positive cells. […]
# endogenous Bax = target: T2, endogenous Bax (Mus musculus, UniProt Q07813); assay: Co-immunoprecipitation of endogenous Humanin and Bax from mouse testis lysates; format: binding; conditions: endogenous peptide and protein
# T2 construct: from tissue; host or cells: testes of three-week-old mice
# T2 sequence (Q07813 whole entry): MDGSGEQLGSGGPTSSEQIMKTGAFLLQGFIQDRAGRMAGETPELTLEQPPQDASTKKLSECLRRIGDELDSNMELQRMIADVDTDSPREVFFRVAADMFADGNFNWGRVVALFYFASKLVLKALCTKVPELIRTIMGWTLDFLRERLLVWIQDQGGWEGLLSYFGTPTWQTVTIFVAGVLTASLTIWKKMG
# Description: (A) HEK293T cells were transfected with pcDNA3-myc plasmids encoding Bax or other Bcl-2 family proteins with GFP, GFP-HN, or GFP-HN(C8P). Cell lysates were immunoprecipitated with polyclonal anti-GFP antibody. The immunoprecipitates or the lysates were blotted with anti-myc or anti-GFP antibodies, respectively. The slower migrating form of GFP seen in lane 1 (asterisk)represents an alternative form of GFP produced from the wild-type (control) p-EGFP-Cl plasmid (http://clonotech.com). (B) Testes of three-week-old mice were homogenized in lysis buffer (0.1% Triton X-100, 50 mM Tris-HCl, pH7.5, 1 mM EDTA, plus protease inhibitor cocktail). The lysates were immunoprecipitated with control rabbit serum or polyclonal anti-mouse Bax antibody. The immunoprecipitates or the lysates were subjected to electrophoresis in Tris/Tricine gels (16% T, 3% C), electroblotted to PVDF membrane, and immunoblotted with polyclonal anti-HN antibody or monoclonal anti-Bax antibody 6A7 (Trevigen). […]
# A rabbit polyclonal antibody raised against Humanin peptide (P04, gift of Dr. Ikuo Nishimoto) was used to examine whether endogenous Humanin peptide interacts with endogenous Bax polypeptide. […] In addition, endogenous Humanin was determined to be a cytosolic protein, based on subcellular fractionation experiments.
# t-Bid = target: T3, t-Bid (Homo sapiens, UniProt P55957); assay: Bid-induced apoptosis in CSM14.1 cells (DAPI staining); format: cell-based; design: expressed in transfected cells; host or cells: CSM14.1 rat hippocampal neuronal cells; conditions: 24 hours after transfection
# T3 sequence (P55957 61-195 limits assumed): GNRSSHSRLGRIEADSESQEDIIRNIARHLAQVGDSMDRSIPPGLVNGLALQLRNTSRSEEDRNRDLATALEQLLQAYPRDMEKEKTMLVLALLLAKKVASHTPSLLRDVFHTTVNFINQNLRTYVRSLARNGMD
# Experimental: Apoptosis was examined by DAPI staining. The data shown were obtained using the cytosolic form of Humanin; however, both cytosolic and mitochondrial forms of Humanin were tested and the results were the same.
# Rat neuronal cell line CSM14.1 cells were transfected with various plasmids using the Lipofectamine reagent (Invitrogen). For transfection, 10×10^5 cells were plated per well using 6 well plates. Each well received 1 μg DNA plus […] of Lipofectamine. After 24 hours of transfection, the percentage of cell death was determined using 4′-6-diamidino-2-phenylindole (DAPI) staining. […] The data shown were obtained using the cytosolic form of Humanin; however, both cytosolic and mitochondrial forms of Humanin were tested and the results were the same.
Bak-induced apoptosis (Bak),Substance,co-immunoprecipitation with Bax from mouse testis lysates (endogenous Bax),Bid-induced apoptosis (t-Bid)
not affected,GFP-HN: Wild-type full-length Humanin fused to Green Fluorescent Protein,–,–
–,"Humanin: 24 amino acid polypeptide, cytosolic form of human Humanin (SEQ ID NO:2); used as synthetic peptide or expressed fusion",co-immunoprecipitated,decreased

# Source: patent publication US7422862B2, “Methods for identifying modulators of apoptosis” (The Burnham Institute, priority 2001, dated 2008)
